One may read the Kd as the free concentration of one partner at which half of the binding sites on the other are occupied at equilibrium, for simple one-to-one binding.

Substitutions are numbered along the chain they refer to.

This assay deals with T1, 3FTx-L15 (recombinant long-chain three-finger α-neurotoxin variant) (Ophiophagus hannah (king cobra), long …).
T1 chain: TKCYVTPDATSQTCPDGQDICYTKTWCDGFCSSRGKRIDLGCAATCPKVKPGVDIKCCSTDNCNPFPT

B1: 95Mat2 (antibody, V domains shown)
VH: QVQLVQSGAEVKKPGSSVKVSCKASGGTFSSYAISWVRQAPGQGLEWMGGIIPIFGTANYAQKFQGRVTITADESTSTAYMELSSLRSEDTAVYYCARIPLVWYESGPYESGVFDYWGQGTLVTVSS
VL: not shown
Take B1: the Kd worked out at 0.1 nM.

B2: 95Mat6 (antibody, V domains shown)
VH: B1 VH with T57H, V102I
VL: not shown
For B2, the Kd is 0.103 nM.

B3: 95Mat3 (antibody, V domains shown)
VH: B1 VH with T57P
VL: not shown
In the case of B3, the binding result is “binds”.

B4: 95Mat4 (antibody, V domains shown)
VH: B1 VH with V102H
VL: not shown
Take B4: the binding result is recorded as “binds”.

(Values after publication PMC7617732 (Science translational medicine, 2024).)
